PMC4274631 (RNA, 2015)
Read-outs that look alike come from different tables or passages of the source. Where no end group is shown, it is not given here. fluorescein = fluorescein label

Legend:
[1] = system: S. pombe RNA triphosphatase Pct1; settings: ref Pei et al. 2001b; cited from earlier work
Pct1 = target: T1, Pct1 (Schizosaccharomyces pombe, UniProt Q9P6Q6); format: binding, S. pombe; settings: 180-fold higher than Kd for Spt5-(801–898)
T1 sequence (Q9P6Q6 1-303): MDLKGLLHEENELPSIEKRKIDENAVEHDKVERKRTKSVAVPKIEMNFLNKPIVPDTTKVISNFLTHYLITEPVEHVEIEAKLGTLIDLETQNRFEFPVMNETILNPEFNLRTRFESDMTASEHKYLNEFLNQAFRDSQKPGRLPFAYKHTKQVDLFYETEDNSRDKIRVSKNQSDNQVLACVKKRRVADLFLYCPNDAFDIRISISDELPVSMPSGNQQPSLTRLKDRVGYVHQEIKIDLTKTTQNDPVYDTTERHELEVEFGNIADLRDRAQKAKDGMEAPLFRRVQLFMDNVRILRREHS

Plus3 domain of Rtf1 = settings: phosphorylated CTR peptide; pdb 4L1U; ref Wier et al. 2013; cited from earlier work
[2] = target: T2, S. pombe RNA triphosphatase Pct1 M100R (S. pombe, UniProt Q9P6Q6 1-303, M100R); assay: fluorescence polarisation
T2 sequence (looked up): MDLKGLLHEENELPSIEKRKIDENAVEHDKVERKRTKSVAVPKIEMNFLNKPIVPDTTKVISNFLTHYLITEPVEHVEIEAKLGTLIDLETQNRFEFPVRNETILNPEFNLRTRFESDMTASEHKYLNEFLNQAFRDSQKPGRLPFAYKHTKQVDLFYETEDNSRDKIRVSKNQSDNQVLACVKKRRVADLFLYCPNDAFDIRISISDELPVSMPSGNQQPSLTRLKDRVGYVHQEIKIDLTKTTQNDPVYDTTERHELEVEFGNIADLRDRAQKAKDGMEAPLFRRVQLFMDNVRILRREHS

[3] = target: T3, S. pombe RNA triphosphatase Pct1 M100A (S. pombe, UniProt Q9P6Q6 1-303, M100A); assay: fluorescence polarisation
T3 sequence (looked up): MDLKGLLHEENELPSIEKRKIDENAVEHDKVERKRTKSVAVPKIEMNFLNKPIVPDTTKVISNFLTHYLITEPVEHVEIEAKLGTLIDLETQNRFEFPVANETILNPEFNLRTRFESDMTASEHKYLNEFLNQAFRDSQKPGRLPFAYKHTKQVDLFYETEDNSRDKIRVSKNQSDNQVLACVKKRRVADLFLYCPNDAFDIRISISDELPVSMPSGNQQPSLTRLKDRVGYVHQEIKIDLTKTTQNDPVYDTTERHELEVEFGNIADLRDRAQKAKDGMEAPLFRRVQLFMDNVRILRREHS

[4] = target: T4, S. pombe RNA triphosphatase Pct1 (wild type) (S. pombe, UniProt Q9P6Q6 1-303); assay: fluorescence polarisation
T4 sequence (looked up): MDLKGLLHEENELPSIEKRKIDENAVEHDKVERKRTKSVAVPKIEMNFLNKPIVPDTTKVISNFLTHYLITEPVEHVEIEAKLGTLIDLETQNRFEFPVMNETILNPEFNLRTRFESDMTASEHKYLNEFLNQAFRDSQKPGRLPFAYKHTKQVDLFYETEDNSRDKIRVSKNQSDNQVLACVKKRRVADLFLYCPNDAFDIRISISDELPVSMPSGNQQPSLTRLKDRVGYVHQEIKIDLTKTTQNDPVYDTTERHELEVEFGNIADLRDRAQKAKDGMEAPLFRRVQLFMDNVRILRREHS

Pct1 M100A = target: T5, Pct1 M100A (Schizosaccharomyces pombe, UniProt Q9P6Q6, M100A); assay: Fluorescence polarization binding of Spt5-; parameters: species or system S. pombe; settings: Pct1 M100A versus wild-type Pct1
T5 sequence (Q9P6Q6 1-303 M100A): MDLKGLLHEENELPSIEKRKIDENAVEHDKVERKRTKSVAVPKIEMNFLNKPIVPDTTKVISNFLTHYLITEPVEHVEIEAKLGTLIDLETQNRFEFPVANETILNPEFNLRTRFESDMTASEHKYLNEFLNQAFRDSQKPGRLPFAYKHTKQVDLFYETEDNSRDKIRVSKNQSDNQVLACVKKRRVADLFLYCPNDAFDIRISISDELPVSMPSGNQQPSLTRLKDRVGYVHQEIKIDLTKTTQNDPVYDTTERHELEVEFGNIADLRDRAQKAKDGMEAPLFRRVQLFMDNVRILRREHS

[5] = target: T4, S. pombe RNA triphosphatase Pct1 (wild …); assay: fluorescence polarisation; remark: listed apart in the source
[6] = target: T4, S. pombe RNA triphosphatase Pct1 (wild …); assay: fluorescence polarisation; remark: listed apart in the source
[7] = target: T4, S. pombe RNA triphosphatase Pct1 (wild …); assay: crystal structure

Molecule: O=P(O)(O)OP(=O)(O)OP(=O)(O)O [tripolyphosphate]
- competitive inhibition [1]: high-affinity competitive inhibitor

Molecule: SGSKTPAWNSGSKTPAWNSGSK
- Kd relative to the Kd of Pct1 for the longer Spt5-(801–898) ligand (Pct1): 180 fold

Molecule: SGSRTPPMYGSQ
- binding to Rtf1 Plus3 domain in crystal (Plus3 domain of Rtf1): bound

B1: BODIPY-FL-N(Cys)-Spt5-(801-898) (domain or fragment, S. pombe)
chain: CISTADGPNVPNWAQGARTPAVANGSRTPAWNTGSRTPAWNSGSKTPAWNSGSRTPAWNSGNKTPAWNAGSRTPAWNSGNKTPAWNVGNKTPAWNSGAK
modifications: BODIPY-FL at the N-terminus via maleimide chemistry (on the added N-terminal cysteine)
- Kd [2]: 21.4 ± 2.4 µM
- Kd [3]: 1.4 ± 0.15 µM
- Kd [4]: 0.68 ± 0.1 µM

B2: Spt5-(801–898): purified recombinant Spt5-(801–898) protein, comprising 10 nonamer repeats, labeled at the N-terminus with BODIPY-FL (protein)
chain: CISTADGPNVPNWAQGARTPAVANGSRTPAWNTGSRTPAWNSGSKTPAWNSGSRTPAWNSGNKTPAWNAGSRTPAWNSGNKTPAWNVGNKTPAWNSGAK
modifications: BODIPY-FL at the N-terminus via maleimide chemistry (on the added N-terminal cysteine)
- effect of M100A on Spt5 CTD binding (Pct1 M100A): twofold

Molecule: fluorescein-SGSKTPAWNSGSKTPAWNSGSK [fluorescein-labeled 22-amino acid synthetic Spt5 CTD peptide SGSKTPAWNSGSKTPAWNSGSK]
- Kd [5]: 124 ± 10 µM

Molecule: SGSKTPAWNSGSKTPAWNSGSK [unphosphorylated 22-amino acid synthetic Spt5 CTD peptide SGSKTPAWNSGSKTPAWNSGSK (untagged)]
- Ki [6]: 79 ± 9 µM

Molecule: TPAWNSGSRTPAWNSGSK [18-mer Spt5-CTD peptide TPAWNSGSRTPAWNSGSK, Spt5-(845-862)]
- stoichiometry N [7]: 2 peptides per Pct1 homodimer
